These results are taken from PMC6811742, “No interactions between heparin and atacicept, an antagonist of B cell survival cytokines” (British Journal of Pharmacology, 2019).

The chains are these.
B1: Atacicept (TACI (30–110)‐Fc) (Fc fusion, human, UniProt O14836 30-110, looked up)
chain: AMRSCPEEQYWDPLLGTCMSCKTICNHQSQRTCAAFCRSLSCRKEQGKFYDHLLRDCISCASICGQHPKQCAYFCENKLRS
notes: also called TACI‐Fc; dimeric atacicept; source: provided by Merck (Darmstadt, Germany); also in sera of human subjects after 150 mg subcutaneously

One assay concerns the target T1, Flag‐mBAFF (mouse, UniProt Q9WU72 127-309).
T1 construct: linker after the Flag tag; mouse BAFF, residues 127-309; that it is Flag‐mBAFF (ps657) is surmised; Encoded with an HA signal before the Flag tag; also called recombinant mouse BAFF; mouse BAFF
Briefly: AlphaScreen or HTRF; AlphaLISA of atacicept diluted in mouse plasma with a matched pair of anti‐TACI antibodies (biotinylated ATA2, ATA3 acceptor beads), with or without recombinant mouse BAFF, with or without acid dissociation; conversely AlphaLISA of mouse BAFF in Baff−/− serum with 0, 100 or 2000 ng/ml atacicept. As to conditions: both partners purified. For orientation: Bead proximity is the source of the signal in Alpha formats.

Assay [1] has as its target B1. Briefly: ELISA; plates coated with atacicept at 1 μg/ml in PBS, blocked, incubated with the indicated concentrations of Flag‐APRIL; revealed with anti‐Flag reagents. Particulars: both partners purified. A general note: ELISA stands for enzyme-linked immunosorbent assay.

T1 sequence (Q9WU72 other isoform, or with tags, fused parts or gaps): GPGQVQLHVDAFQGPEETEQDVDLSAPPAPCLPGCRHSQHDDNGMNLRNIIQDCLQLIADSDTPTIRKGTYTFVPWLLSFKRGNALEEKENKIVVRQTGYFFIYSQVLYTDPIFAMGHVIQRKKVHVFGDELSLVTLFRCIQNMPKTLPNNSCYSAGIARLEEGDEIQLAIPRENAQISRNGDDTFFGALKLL

As for B1, the binding result in the assay with Flag‐mBAFF was “binds”.

B2: Flag‐ACRP‐hAPRIL (ligand)
chain: not shown
notes: linker after the Flag tag; human ACRP30 (adiponectin), residues 16-108; linker; human APRIL, residues 105-250, starting at alanine 105 just after the furin cleavage site; also called Flag‐APRIL; ps1088; source: HEK293 cells, purified on anti‐Flag agarose
Regarding B2, in assay [1], the binding result is on record as “binds”.
